*: point of attachment. fluorescein = fluorescein label on the N-terminus; Farnesyl = CC(C)=CCC/C(C)=C/CC/C(C)=C/C*; FAM = fluorescein
Experiments:
Conditions in all cases: both partners purified
[1] = target: T1, PDE6D (phosphodiesterase 6 delta), wild type, polyhistidine tag removed (UniProt O43924 1-150); experiment: fluorescence polarisation; fluorescein-labeled KRAS S3I1 peptide at 5 nM, PDE6D 0-512 nM in twofold dilutions; 20 mM Tris pH 7.5, 150 mM NaCl, 2 mM DTT; quadratic fit in GraFit
T1 construct: Cloned into pRSF-Duet and pBDDB-SPR3; also called PDE6D WT; WT PDE6D; source: E. coli BL21 DE3, purified (HisTrap, TEV protease, reverse HisTrap, Superdex S75)

PDE6D M20K, untagged = target: T2, PDE6D M20K, untagged (UniProt O43924 1-150, M20K); experiment: as above
T2 construct: PDE6D with M20K; Printed as 'untagged PDE6D.M20K' in the pulldown and release assay; also called attenuated PDE6D

[2] = target: T1, PDE6D (phosphodiesterase 6 delta), wild …; experiment: fluorescence polarisation; fluorescein-…(OMe)-Far at 500 nM, PDE6D 20 to 0.156 μM in twofold dilutions, without or with compound at 500 μM; 20 mM Tris pH 7.5, 150 mM NaCl, 2 mM DTT, 5% DMSO

B1: KRAS S3I1 peptide, fluorescein-DGKKKKKKSSTIC(OMe)-farnesyl (peptide)
peptide: fluorescein-DGKKKKKKSSTIC(Farnesyl)-OMe
notes: also called KRAS S3I1 variant; source: synthetic peptide (JPT Innovative Peptide Solutions)
Kd [1]: 0.05 nM
Kd (PDE6D M20K, untagged): 2.62 ± 1.7 nM

B2: fluorescein-labeled KRAS HVR peptide, FAM-KKKKKKSKTKC(OMe)-Far (peptide)
peptide: {FAM}-KKKKKKSKTKC(Farnesyl)-OMe
notes: wild-type KRAS (KRAS4B) HVR peptide ending at the farnesylated C185; also called KRAS WT peptide
binding result [2]: binds

Reference: article PMC8842248 (Journal of Medicinal Chemistry, 2022)
